Data on three substances can be found in patent publication US20030143760A1.

The target in assay [1] is PHF-tau (human) (UniProt P10636). Briefly: competition ELISA on PHF-tau captured by polyclonal anti-tau; biotinylated AT8, unlabeled competitor AT8 at 10 ug/ml.
Assay [2] shares this target. Kind of assay: competition ELISA on PHF-tau captured by polyclonal anti-tau; biotinylated AT8, unlabeled competitor AT120 at 10 ug/ml.
The target is the same in assay [3]. Kind of assay: sandwich ELISA: AT120 coated, tau at 0 pg/ml (blank), detection with biotinylated BT2 + HT7. (In general: An ELISA detects its analyte on a solid surface through an enzyme-linked reagent.)
In assay [4] the target is affinity-purified human normal tau (human) (UniProt P10636). The assay is described as above.
For assay [5], the target named is PHF-tau (human) (UniProt P10636). Kind of assay: sandwich ELISA: AT120 coated, tau at 10 pg/ml spiked in tau-negative CSF, detection with biotinylated BT2 + HT7.
Assay [6] addresses affinity-purified human normal tau (human) (UniProt P10636). Described as above.
In assay [7] the target is PHF-tau (human) (UniProt P10636). Briefly: sandwich ELISA: AT120 coated, tau at 20 pg/ml spiked in tau-negative CSF, detection with biotinylated BT2 + HT7.
The target of assay [8] is affinity-purified human normal tau (human) (UniProt P10636). Described as above.
Assay [9] has as its target PHF-tau (human) (UniProt P10636). Briefly: sandwich ELISA: AT120 coated, tau at 40 pg/ml spiked in tau-negative CSF, detection with biotinylated BT2 + HT7.
Assay [10] has as its target affinity-purified human normal tau (human) (UniProt P10636). The assay is described as above.
The target in assay [11] is PHF-tau (human) (UniProt P10636). Briefly: sandwich ELISA: AT120 coated, tau at 80 pg/ml spiked in tau-negative CSF, detection with biotinylated BT2 + HT7.
Assay [12] addresses affinity-purified human normal tau (human) (UniProt P10636). Described as above.
In assay [13] the target is PHF-tau (human) (UniProt P10636). Kind of assay: sandwich ELISA: AT120 coated, tau at 160 pg/ml spiked in tau-negative CSF, detection with biotinylated BT2 + HT7.
The target of assay [14] is affinity-purified human normal tau (human) (UniProt P10636). The description is as above.
For assay [15], the target named is PHF-tau (human) (UniProt P10636). Kind of assay: competition ELISA on PHF-tau captured by polyclonal anti-tau; biotinylated AT120, unlabeled competitor AT8 at 10 ug/ml.
Assay [16] has the same target. Briefly: competition ELISA on PHF-tau captured by polyclonal anti-tau; biotinylated AT120, unlabeled competitor AT120 at 10 ug/ml.
For assay [17] the target is unchanged. Kind of assay: competition ELISA on PHF-tau captured by polyclonal anti-tau; biotinylated BT2, unlabeled competitor BT2 at 10 ug/ml.
Assay [18] has the same target. Kind of assay: competition ELISA on PHF-tau captured by polyclonal anti-tau; biotinylated BT2, unlabeled competitor AT120 at 10 ug/ml.

Regarding monoclonal antibody AT8, the Absorbance in the assay with PHF-tau (human) [1] amounted to 0.001 absorbance; with PHF-tau (human) [2], 0.372 absorbance.

As to monoclonal antibody AT120, the absorbance (milliabsorbance units) (milliabsorbance units) with PHF-tau (human) [3] turned out to be 92; in [4] it was 87; with PHF-tau (human) [5], 143; in assay [6], 154; in the assay with PHF-tau (human) [7] it was 257; in [8], 256. Also, the absorbance (milliabsorbance units) (milliabsorbance units) is 566 with PHF-tau (human) [9]; 678 in [10]; 901 in the assay with PHF-tau (human) [11]; 970 in [12]; 1680 with PHF-tau (human) [13]; 1610 in [14]. In addition, the values for the Absorbance with PHF-tau (human) [15] and with PHF-tau (human) [16] were 0.476 absorbance and 0.001 absorbance, respectively.

Take monoclonal antibody BT2: the values for the Absorbance with PHF-tau (human) [17] and in the assay with PHF-tau (human) [18] were 0.054 absorbance and 0.543 absorbance, respectively.
